These results are taken from patent publication US20220056146A1 (TASRIF PHARMACEUTICAL, published 2022).

Test [1] deals with T1, African green monkey PVR (CD 155) on Vero cells (African green monkey).
T1 construct: whole, on cells
Nature of the test: cell binding on Vero cells.

The target in test [2] is T2, human CD155 (poliovirus receptor, PVR) on cells (U87/U87MG, HAP1) (human, UniProt P15151 21-417).
T2 construct: whole, on cells
T2 sequence (looked up): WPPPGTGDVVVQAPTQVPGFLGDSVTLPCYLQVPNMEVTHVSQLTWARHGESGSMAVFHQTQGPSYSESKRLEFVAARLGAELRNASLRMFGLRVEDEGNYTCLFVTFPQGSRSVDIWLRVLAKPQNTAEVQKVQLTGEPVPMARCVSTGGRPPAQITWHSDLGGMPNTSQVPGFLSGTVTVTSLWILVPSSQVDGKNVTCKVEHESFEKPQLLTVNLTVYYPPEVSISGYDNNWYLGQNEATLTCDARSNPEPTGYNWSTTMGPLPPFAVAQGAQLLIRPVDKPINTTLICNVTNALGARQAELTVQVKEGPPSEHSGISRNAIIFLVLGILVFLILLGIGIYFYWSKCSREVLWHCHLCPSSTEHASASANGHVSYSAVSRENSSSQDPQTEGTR
Nature of the test: cell binding on U-87 cells.

For test [3], the target named is T2, human CD155 (poliovirus receptor, PVR) …. Nature of the test: cell binding on HAP-1 cells.
Test [4] has the same target. As to the kind of experiment: in vivo fluorescence imaging of mice with U87MG tumors, 72 hours after injection. The procedure:
Ab825-VT680 conjugate binds and accumulates in U87MG tumors In Vivo. The control mice were either untreated or treated with VT 680 dye alone.

The target in test [5] is T3, poliovirus receptor (PVR, CD 155), form not stated (UniProt P15151 21-343, limits assumed).
T3 sequence (looked up): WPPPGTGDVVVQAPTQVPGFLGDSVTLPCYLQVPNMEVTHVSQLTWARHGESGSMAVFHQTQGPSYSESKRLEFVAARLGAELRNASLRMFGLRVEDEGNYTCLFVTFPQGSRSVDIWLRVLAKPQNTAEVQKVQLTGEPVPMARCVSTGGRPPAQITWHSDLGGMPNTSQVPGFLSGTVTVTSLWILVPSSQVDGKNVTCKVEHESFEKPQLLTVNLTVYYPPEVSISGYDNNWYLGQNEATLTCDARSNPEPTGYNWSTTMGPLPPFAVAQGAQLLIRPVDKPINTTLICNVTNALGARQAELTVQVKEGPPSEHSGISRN
As to the kind of experiment: surface plasmon resonance (Biacore).

T1 sequence (P32506 21-417): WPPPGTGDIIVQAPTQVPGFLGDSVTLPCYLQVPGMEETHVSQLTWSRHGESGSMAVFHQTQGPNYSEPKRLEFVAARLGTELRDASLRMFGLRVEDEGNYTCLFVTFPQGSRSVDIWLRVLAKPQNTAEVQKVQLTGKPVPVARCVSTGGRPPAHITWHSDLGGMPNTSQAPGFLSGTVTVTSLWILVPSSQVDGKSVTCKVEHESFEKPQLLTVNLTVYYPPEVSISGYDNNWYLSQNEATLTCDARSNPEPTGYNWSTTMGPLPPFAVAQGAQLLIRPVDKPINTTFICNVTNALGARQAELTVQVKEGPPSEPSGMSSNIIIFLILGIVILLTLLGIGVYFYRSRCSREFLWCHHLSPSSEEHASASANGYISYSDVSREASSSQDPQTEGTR

B1: Ab825 (VH0/VK0), human IgG1 chimeric antibody (antibody, V domains shown)
VH: EVQLQQSGPELVKPGASVKISCKTSGYTFTEYTMHWVKQSHGKSLEWIGGIHPNNGDTSYNQRFKGKATLTVDKSSSTAYMELRSLTSEDSAVYYCARWTGDFDYWGQGTTLTVST
VL: DIVMTQSPKFMSTSVGDRVSVTCKASQNVGTNVAWYQQKPGQSPKALIYSASYRYSGVPDRFTGSGSGTDFTLTISNVQSEDLAEYFCQQYNSYPYTFGGGTKLEIK
notes: Murine variable regions in a human IgG1 chimeric antibody, derived from D171
What is called EC50 is the concentration needed to bring the measured effect to its halfway point. Consider B1, for which the values for the half-maximal effective concentration (EC50) in test [1], in test [2] and in test [3] were 0.086 µg/mL, 0.0869 µg/mL and 0.0487 µg/mL, respectively.

B2: Ab825-VT680 conjugate (antibody, V domains shown)
VH: EVQLQQSGPELVKPGASVKISCKTSGYTFTEYTMHWVKQSHGKSLEWIGGIHPNNGDTSYNQRFKGKATLTVDKSSSTAYMELRSLTSEDSAVYYCARWTGDFDYWGQGTTLTVST
VL: DIVMTQSPKFMSTSVGDRVSVTCKASQNVGTNVAWYQQKPGQSPKALIYSASYRYSGVPDRFTGSGSGTDFTLTISNVQSEDLAEYFCQQYNSYPYTFGGGTKLEIK
notes: Ab825 conjugated to the fluorophore VT680; Neither the chain nor the site of conjugation is stated
With B2, in test [4], the binding result is recorded as “binds”.

B3: VH4 N54S D56E / VK3 N92E (antibody, V domains shown)
VH: EVQLVQSGSELKKPGASVKVSCKTSGYTFTEYTMHWVRQPHGKGLEWIGGIHPNSGETSYNQRFKGRVTITVDKSTSTAYMELSSLRSEDTAVYYCARWTGDFDYWGQGTLVTVSS
VL: DIQMTQSPSAMSASVGDRVTITCKASQNVGTNVAWYQQKPGQPPKALIYSASYRYSGVPDRFSGSGSGTDFTLTISSLQAEDLAEYFCQQYESYPYTFGQGTKLEIK
notes: Humanized variant of Ab825; also called antibody (vi)
For B3, the values for the EC50 in test [1], in test [2] and in test [3] were 0.236 µg/mL, 0.585 µg/mL and 0.0984 µg/mL, respectively.

B4: monoclonal antibody defined by SEQ ID 23 (LCVR) and SEQ ID 25 (HCVR) with a IgG4 (S241P) (antibody, V domains shown)
VH: EVQLVQSGSELKKPGASVKVSCKTSGYTFTEYTMHWVRQPHGKGLEWIGGIHPNSGGTSYNQRFKGRVTITVDKSTSTAYMELSSLRSEDTAVYYCARWTGDFDYWGQGTLVTVSS
VL: DIQMTQSPSAMSASVGDRVTITCKASQNVGTNVAWYQQKPGQPPKALIYSASYRYSGVPDRFSGSGSGTDFTLTISSLQAEDLAEYFCQQYQSYPYTFGQGTKLEIK
notes: also called VH4 N54S D56G / Vk3 N92Q IgG4 (S241P)
For orientation: Kd means the concentration at which binding is half-saturated. The molecule B4 returned a Kd in test [5] of 0.3 nM.

B5: VH3 N54Q D56E / VK2 N92E (antibody, V domains shown)
VH: EVQLVQSGSELKKPGASVKISCKTSGYTFTEYTMHWVRQPHGKGLEWIGGIHPNQGETSYNQRFKGRVTLTVDKSTSTAYMELSSLRSEDTAVYYCARWTGDFDYWGQGTLVTVSS
VL: DIVMTQSPSAMSASVGDRVTITCKASQNVGTNVAWYQQKPGQPPKALIYSASYRYSGVPDRFTGSGSGTDFTLTISSLQAEDLAEYFCQQYESYPYTFGQGTKLEIK
notes: Humanized variant of Ab825; also called antibody (i)
Turning to B5, the concentration for a half-maximal effect (EC50) is 0.226 µg/mL in test [1], 0.272 µg/mL in test [2] and 0.168 µg/mL in test [3].

B6: VH4 N54Q D56E / VK3 N92E (antibody, V domains shown)
VH: EVQLVQSGSELKKPGASVKVSCKTSGYTFTEYTMHWVRQPHGKGLEWIGGIHPNQGETSYNQRFKGRVTITVDKSTSTAYMELSSLRSEDTAVYYCARWTGDFDYWGQGTLVTVSS
VL: DIQMTQSPSAMSASVGDRVTITCKASQNVGTNVAWYQQKPGQPPKALIYSASYRYSGVPDRFSGSGSGTDFTLTISSLQAEDLAEYFCQQYESYPYTFGQGTKLEIK
notes: Humanized variant of Ab825; also called antibody (v)
Take B6: the EC50 stood at 0.629 µg/mL in test [1], 0.551 µg/mL in test [2] and 0.097 µg/mL in test [3].

B7: VH3 N54S D56G / VK3 N92Q (antibody, V domains shown)
VH: EVQLVQSGSELKKPGASVKISCKTSGYTFTEYTMHWVRQPHGKGLEWIGGIHPNSGGTSYNQRFKGRVTLTVDKSTSTAYMELSSLRSEDTAVYYCARWTGDFDYWGQGTLVTVSS
VL: DIQMTQSPSAMSASVGDRVTITCKASQNVGTNVAWYQQKPGQPPKALIYSASYRYSGVPDRFSGSGSGTDFTLTISSLQAEDLAEYFCQQYQSYPYTFGQGTKLEIK
notes: Humanized variant of Ab825; also called antibody (iv); Sample 3
Consider B7, for which the values for the EC50 in test [1], in test [2] and in test [3] were 0.0561 µg/mL, 0.0778 µg/mL and 0.0381 µg/mL, respectively.

B8: VH4 N54S D56G / VK3 N92Q (antibody, V domains shown)
VH: EVQLVQSGSELKKPGASVKVSCKTSGYTFTEYTMHWVRQPHGKGLEWIGGIHPNSGGTSYNQRFKGRVTITVDKSTSTAYMELSSLRSEDTAVYYCARWTGDFDYWGQGTLVTVSS
VL: DIQMTQSPSAMSASVGDRVTITCKASQNVGTNVAWYQQKPGQPPKALIYSASYRYSGVPDRFSGSGSGTDFTLTISSLQAEDLAEYFCQQYQSYPYTFGQGTKLEIK
notes: Humanized variant of Ab825; also called antibody (ix); Sample 4
Turning to B8, the EC50 came to 0.0869 µg/mL in test [1], 0.0932 µg/mL in test [2] and 0.0446 µg/mL in test [3].

B9: VH4 N54S D56G / VK3 N92E (antibody, V domains shown)
VH: EVQLVQSGSELKKPGASVKVSCKTSGYTFTEYTMHWVRQPHGKGLEWIGGIHPNSGGTSYNQRFKGRVTITVDKSTSTAYMELSSLRSEDTAVYYCARWTGDFDYWGQGTLVTVSS
VL: DIQMTQSPSAMSASVGDRVTITCKASQNVGTNVAWYQQKPGQPPKALIYSASYRYSGVPDRFSGSGSGTDFTLTISSLQAEDLAEYFCQQYESYPYTFGQGTKLEIK
notes: Humanized variant of Ab825; also called antibody (vii)
Take B9: the EC50 in test [1] was determined as 0.108 µg/mL; in test [2] it was 0.191 µg/mL; in test [3], 0.0563 µg/mL.

B10: VH4 N54Q D56E / VK3 N92Q (antibody, V domains shown)
VH: EVQLVQSGSELKKPGASVKVSCKTSGYTFTEYTMHWVRQPHGKGLEWIGGIHPNQGETSYNQRFKGRVTITVDKSTSTAYMELSSLRSEDTAVYYCARWTGDFDYWGQGTLVTVSS
VL: DIQMTQSPSAMSASVGDRVTITCKASQNVGTNVAWYQQKPGQPPKALIYSASYRYSGVPDRFSGSGSGTDFTLTISSLQAEDLAEYFCQQYQSYPYTFGQGTKLEIK
notes: Humanized variant of Ab825; also called antibody (viii)
B10: the figures for the EC50 in test [1], in test [2] and in test [3] were 0.48 µg/mL, 0.523 µg/mL and 0.108 µg/mL, respectively.

B11: VH3 N54S D56G / VK2 N92Q (antibody, V domains shown)
VH: EVQLVQSGSELKKPGASVKISCKTSGYTFTEYTMHWVRQPHGKGLEWIGGIHPNSGGTSYNQRFKGRVTLTVDKSTSTAYMELSSLRSEDTAVYYCARWTGDFDYWGQGTLVTVSS
VL: DIVMTQSPSAMSASVGDRVTITCKASQNVGTNVAWYQQKPGQPPKALIYSASYRYSGVPDRFTGSGSGTDFTLTISSLQAEDLAEYFCQQYQSYPYTFGQGTKLEIK
notes: Humanized variant of Ab825; also called antibody (ii); Sample 2
B11: the figures for the EC50 in test [1], in test [2] and in test [3] were 0.0615 µg/mL, 0.069 µg/mL and 0.0383 µg/mL, respectively.

B12: VH3 N54Q D56E / VK3 N92E (antibody, V domains shown)
VH: EVQLVQSGSELKKPGASVKISCKTSGYTFTEYTMHWVRQPHGKGLEWIGGIHPNQGETSYNQRFKGRVTLTVDKSTSTAYMELSSLRSEDTAVYYCARWTGDFDYWGQGTLVTVSS
VL: DIQMTQSPSAMSASVGDRVTITCKASQNVGTNVAWYQQKPGQPPKALIYSASYRYSGVPDRFSGSGSGTDFTLTISSLQAEDLAEYFCQQYESYPYTFGQGTKLEIK
notes: Humanized variant of Ab825; also called antibody (iii)
Consider B12, for which the EC50 is 0.273 µg/mL in test [1], 0.284 µg/mL in test [2] and 0.115 µg/mL in test [3].
